{
  "source": "paper PMC3799859",
  "about": "“Sigma-1 Receptor Chaperone at the ER-Mitochondrion Interface Mediates the Mitochondrion-ER-Nucleus Signaling for Cellular Survival” (PLoS ONE, 2013)",
  "molecular_target": "the molecule itself",
  "assay": "non-reducing gel and blot of the purified protein; ΔIRE1-V5/His purified on a Ni column, non-reducing condition (without β-mercaptoethanol)",
  "data": [
    {"protein": "ΔIRE1-V5/His (ER lumenal domain of human IRE1) (domain or fragment, UniProt O75460 19-443, looked up, human IRE1, lumenal domain (ΔIRE1), lacking the cytoplasmic domain; Most of the purified protein is a dimer under non-reducing conditions; a portion was pretreated with β-mercaptoethanol to keep it monomeric; source: CHO, transfected (pcDNA3.1); in lysate, or purified from the cell extract on Ni-NTA agarose; not shown: V5, C-terminal, kept; His, C-terminal, kept) IFGSTSTVTLPETLLFVSTLDGSLHAVSKRTGSIKWTLKEDPVLQVPTHVEEPAFLPDPNDGSLYTLGSKNNEGLTKLPFTIPELVQASPCRSSDGILYMGKKQDIWYVIDLLTGEKQQTLSSAFADSLCPSTSLLYLGRTEYTITMYDTKTRELRWNATYFDYAASLPEDDVDYKMSHFVSNGDGLVVTVDSESGDVLWIQNYASPVVAFYVWQREGLRKVMHINVAVETLRYLTFMSGEVGRITKWKYPFPKETEAKSKLTPTLYVGKYSTSLYASPSMVHEGVAVVPRGSTLPLLEGPQTDGVTIGDKGECVITPSTDVKFDPGLKSKNKLNYLRNYWLLIGHHETPLSASTKMLERFPNNLPKHRENVIPADSEKKSFEEVINLVDQTSENAPTTVSRDVEEKPAHAPARPEAPVDSMLKD", "values": [
      {"measurement": "stoichiometry N", "result": 2}
    ]}
  ]
}
